Data set [1] deals with p73α and ΔNp73α in SH-SY5Y cells. Kind of data set: Immunoblot (Western blotting) of cisplatin-treated tumor cells. The format is cell-based, human. The following applies: tumor cells treated with cisplatin, RT-PCR. The protocol: The present inventors ascertained that treating tumor cells with the DNA inhibiting agent cisplatin causes apoptosis of the tumor cells in a dose-dependent manner. Production of proteins p53 and p73α was confirmed by Western blotting. The tumor cells in this case are preferably neuroblastoma cells, but may also be other central or peripheral nervous system tumor cells.
The cells were lysed in EBC buffer (50 mM Tris-HCl, pH 8.0/120 mM NaCl/0.5% Nonidet P-40) containing 1 mM phenylmethylsulfonyl fluoride. The lysate was clarified by centrifugation at 14,000 rpm at 4° C. for 15 minutes. The protein concentration was determined by the Bradford procedure. For immunoblot analysis, the proteins were resolved by SDS […] gel electrophoresis and transferred to a nitrocellulose membrane. The membrane filter was blocked with 5% powdered milk in TBST (10 mM Tris-HCl, pH 8.0/150 mM NaCl/0.1% Tween 20) for 1 hour at room temperature. […] The bound secondary antibody was detected by enhanced chemiluminescence (ECL, Amersham Pharmacia Biotech) according to the manufacturer's protocol.
The whole cell protein (40 μg) was extracted from each culture. The expression levels of p73α and p53 were each determined by immunoblot analysis (described above) using p73α-specific antibody (Ab-1) or p53-specific antibody (DO-1). […]

Data set [2] deals with T1, p73beta (UniProt O15350-2 O15350-2:1-499).
T1 sequence: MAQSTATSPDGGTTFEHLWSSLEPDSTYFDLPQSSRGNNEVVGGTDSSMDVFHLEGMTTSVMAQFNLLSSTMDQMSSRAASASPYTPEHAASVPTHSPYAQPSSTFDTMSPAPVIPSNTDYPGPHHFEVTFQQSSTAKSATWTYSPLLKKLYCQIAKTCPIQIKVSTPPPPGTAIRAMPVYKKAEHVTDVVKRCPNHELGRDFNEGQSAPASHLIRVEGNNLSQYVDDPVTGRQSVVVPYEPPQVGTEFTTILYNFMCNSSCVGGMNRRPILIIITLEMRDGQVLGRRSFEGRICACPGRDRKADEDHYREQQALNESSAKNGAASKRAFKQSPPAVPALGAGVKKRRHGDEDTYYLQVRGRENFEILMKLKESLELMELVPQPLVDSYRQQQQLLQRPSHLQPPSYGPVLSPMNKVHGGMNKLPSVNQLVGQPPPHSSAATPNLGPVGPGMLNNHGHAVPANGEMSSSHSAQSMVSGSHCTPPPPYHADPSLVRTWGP
Kind of data set: EMSA; supershifted by anti-HA; poly(dI-dC), 3.125 mM MgCl2, room temperature. The following applies: tags: HA tag; TNT reticulocyte lysate; label: 32P. (Mobility shift assays separate free from complexed probe on a gel.)

The target of data set [3] is T2, p73alpha (UniProt O15350 O15350:1-636).
T2 sequence: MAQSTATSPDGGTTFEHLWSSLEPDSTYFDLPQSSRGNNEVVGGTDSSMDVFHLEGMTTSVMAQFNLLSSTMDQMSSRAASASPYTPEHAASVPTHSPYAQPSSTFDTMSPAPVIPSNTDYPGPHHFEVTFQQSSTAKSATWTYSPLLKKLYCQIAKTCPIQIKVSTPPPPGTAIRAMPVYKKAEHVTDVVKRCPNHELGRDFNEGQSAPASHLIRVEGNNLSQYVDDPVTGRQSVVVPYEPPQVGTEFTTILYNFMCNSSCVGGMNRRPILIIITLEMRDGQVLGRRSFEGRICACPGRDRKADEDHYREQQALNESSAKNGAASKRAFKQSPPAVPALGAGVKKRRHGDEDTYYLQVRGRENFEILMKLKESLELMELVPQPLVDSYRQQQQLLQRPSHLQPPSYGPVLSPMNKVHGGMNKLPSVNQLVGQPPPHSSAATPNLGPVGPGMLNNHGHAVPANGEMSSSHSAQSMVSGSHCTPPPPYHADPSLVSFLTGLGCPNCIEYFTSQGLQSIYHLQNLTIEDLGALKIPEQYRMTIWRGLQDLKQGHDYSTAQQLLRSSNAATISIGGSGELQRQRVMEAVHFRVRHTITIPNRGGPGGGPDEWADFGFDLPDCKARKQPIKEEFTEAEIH
Described as above. The following applies: tags: HA tag; TNT reticulocyte lysate; label: 32P.

With `N.N.[Cl][Pt][Cl]` [cisplatin], the “production of p73α and ΔNp73α at mRNA and protein level” value in data set [1] was “induces production of p73α and ΔNp73α”.

B1: deltaNp73 promoter 61-bp probe (dsDNA)
DNA 1: GTGCGGTCCAACACATCACCGGGCAAGCTGAGGCCTGCCCCGGACTTGGATGAATACTCAT
DNA 2: ATGAGTATTCATCCAAGTCCGGGGCAGGCCTCAGCTTGCCCGGTGATGTGTTGGACCGCAC
On to B1, for which the binding result in data set [2] and in data set [3] was “binds” each time.

The values are drawn from patent US20060240417A1, “Agent controlling the apoptosis induction by p73” (Hisamitsu Pharmaceutical Co., Inc., priority 2002, published 2006).
